Measurements published in paper PMC5493754, “Myosin 7 and its adaptors link cadherins to actin” (Nature Communications, 2017).
Each block holds one binder with its values, some of them ahead of it.

Experiments:
Assay in all cases: MST; YFP-fused partner constant at 100 nM, non-fluorescent protein titrated (16 two-fold dilutions); 20 mM Hepes pH 7.0, 100 mM NaCl, 1 mM EGTA, 0.5 mM TCEP, 0.05% Tween 20; Monolith NT.115
Settings in all cases: both partners purified
[1] = target: T1, YFP-Myosin 7a MF2 (human, UniProt Q13402-1 1702-2215)
T1 construct: Myosin 7a, human, MF2, residues 1702-2215 of UniProt Q13402-1; pET14-YFP vector; also called ^YFPM7a MF2; source: E. coli (BL21-AI, BL21 (DE3) Rosetta or BL21-Gold (DE3)), purified (Histrap, CaptoQ, gel filtration)
T1 sequence (looked up): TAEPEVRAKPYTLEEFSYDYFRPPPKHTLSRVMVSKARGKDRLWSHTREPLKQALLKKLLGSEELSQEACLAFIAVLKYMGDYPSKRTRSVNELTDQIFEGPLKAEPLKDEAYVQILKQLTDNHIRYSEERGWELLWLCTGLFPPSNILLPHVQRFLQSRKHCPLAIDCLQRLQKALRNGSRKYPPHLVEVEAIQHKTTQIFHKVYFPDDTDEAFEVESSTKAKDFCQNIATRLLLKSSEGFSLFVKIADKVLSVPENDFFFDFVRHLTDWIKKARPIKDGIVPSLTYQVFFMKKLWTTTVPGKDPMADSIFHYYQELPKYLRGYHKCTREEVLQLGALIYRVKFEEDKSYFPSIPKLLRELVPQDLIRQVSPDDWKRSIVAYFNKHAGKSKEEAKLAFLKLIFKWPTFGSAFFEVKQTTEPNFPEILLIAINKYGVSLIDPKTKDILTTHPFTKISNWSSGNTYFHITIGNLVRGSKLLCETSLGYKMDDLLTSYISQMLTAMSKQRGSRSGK

[2] = target: T2, YFP-Harmonin NPDZ1.PDZ2 (human, UniProt Q9Y6N9-1 1-301)
T2 construct: Harmonin-a1 (USH1C), human, residues 1-301 of UniProt Q9Y6N9-1; also called ^YFPNPDZ1.PDZ2; source: E. coli BL21 (DE3) Rosetta, purified (Glutathione Sepharose 4B, size-exclusion chromatography)
T2 sequence (looked up): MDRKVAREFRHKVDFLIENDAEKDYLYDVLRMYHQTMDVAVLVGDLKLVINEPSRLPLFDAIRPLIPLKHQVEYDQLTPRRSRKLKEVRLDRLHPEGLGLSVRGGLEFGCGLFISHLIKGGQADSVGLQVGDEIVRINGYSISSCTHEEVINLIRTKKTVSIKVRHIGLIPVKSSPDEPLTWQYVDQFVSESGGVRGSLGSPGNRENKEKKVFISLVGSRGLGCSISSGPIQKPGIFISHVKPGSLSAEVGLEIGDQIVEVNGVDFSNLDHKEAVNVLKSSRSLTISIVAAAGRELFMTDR

[3] = target: T3, Myosin 7b MF2 L2083W (human, UniProt Q6PIF6 1605-2116, L2083W)
T3 construct: Myosin 7b, human, MF2, residues 1605-2116 of UniProt Q6PIF6; also called M7b MF2 L2083W; source: E. coli, purified similarly as wild type (Histrap, CaptoQ, gel filtration)
T3 sequence (looked up): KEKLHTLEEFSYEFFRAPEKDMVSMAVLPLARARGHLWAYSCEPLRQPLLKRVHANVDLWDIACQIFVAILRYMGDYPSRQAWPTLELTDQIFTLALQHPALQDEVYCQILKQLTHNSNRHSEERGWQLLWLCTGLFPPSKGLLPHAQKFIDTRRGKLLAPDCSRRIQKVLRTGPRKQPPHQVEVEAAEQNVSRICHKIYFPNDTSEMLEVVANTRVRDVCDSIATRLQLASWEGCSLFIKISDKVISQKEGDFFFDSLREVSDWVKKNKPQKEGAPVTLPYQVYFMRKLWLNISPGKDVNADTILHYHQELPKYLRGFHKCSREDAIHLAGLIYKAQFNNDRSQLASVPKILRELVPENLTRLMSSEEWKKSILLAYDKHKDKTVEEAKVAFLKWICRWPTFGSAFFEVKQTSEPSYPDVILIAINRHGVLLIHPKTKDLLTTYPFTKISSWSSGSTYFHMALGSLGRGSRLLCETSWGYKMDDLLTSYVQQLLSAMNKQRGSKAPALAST

[4] = target: T4, Harmonin NPDZ1.PDZ2 (human, UniProt Q9Y6N9-1 1-301)
T4 construct: Harmonin-a1 (USH1C), human, N-terminal domain, PDZ1 and PDZ2, residues 1-301 of UniProt Q9Y6N9-1; source: E. coli BL21 (DE3) Rosetta, purified (Glutathione Sepharose 4B, size-exclusion chromatography)
T4 sequence (looked up): T2 sequence (looked up)

[5] = target: T5, Harmonin NPDZ1 (non-fluorescent, as used in MST and SEC-MALS) (human, UniProt Q9Y6N9-1 1-197)
T5 construct: Harmonin-a1 (USH1C), human, N-terminal domain and PDZ1, residues 1-197 of UniProt Q9Y6N9-1; source: E. coli BL21 (DE3) Rosetta, purified (Glutathione Sepharose 4B, size-exclusion chromatography)
T5 sequence (looked up): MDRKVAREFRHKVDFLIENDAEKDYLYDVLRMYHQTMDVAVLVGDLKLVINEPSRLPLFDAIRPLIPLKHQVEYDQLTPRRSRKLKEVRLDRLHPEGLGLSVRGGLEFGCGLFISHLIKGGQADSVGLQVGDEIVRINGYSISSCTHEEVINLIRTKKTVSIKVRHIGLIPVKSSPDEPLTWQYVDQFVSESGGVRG

Kd [1]: 1400 ± 200 nM
Kd [2]: 5.2 µM
B1: Harmonin-a PDZ3c (non-fluorescent, as used in MST) (domain or fragment, human, UniProt Q9Y6N9-1 428-552, looked up)
chain: QDFRKYEEGFDPYSMFTPEQIMGKDVRLLRIKKEGSLDLALEGGVDSPIGKVVVSAVYERGAAERHGGIVKGDEIMAINGKIVTDYTLAEAEAALQKAWNQGGDWIDLVVAVCPPKEYDDELTFF
notes: Harmonin-a1 (USH1C), human, PDZ3 plus C-terminal peptide, residues 428-552 of UniProt Q9Y6N9-1; The methods say only that samples for ITC or crystallisation were digested with TEV protease; also called PDZ3c (isoA); source: E. coli BL21 (DE3) Rosetta, purified (Glutathione Sepharose 4B, size-exclusion chromatography)

Kd [3]: > 300 µM
Kd [4]: 3.2 µM
Kd [5]: 14.2 µM
B2: YFP-Harmonin-a PDZ3c (domain or fragment, human, UniProt Q9Y6N9-1 428-552, looked up)
chain: B1 chain
notes: Harmonin-a1 (USH1C), human, residues 428-552 of UniProt Q9Y6N9-1; also called ^YFPPDZ3c (isoA); source: E. coli BL21 (DE3) Rosetta, purified (Glutathione Sepharose 4B, size-exclusion chromatography)
